PMC6615493, “The Role of Iron and Copper on the Oligomerization Dynamics of DR_2577, the Main S-Layer Protein of Deinococcus radiodurans” (Frontiers in Microbiology, 2019)
Where “and” joins values, the source holds several entries; their conditions need not be identical. Equal entries are not always repeated.

Target: the molecule itself
Assay: SEC; Superose 6 10/300GL, 50 µl protein at 0.2 mg/ml, 0.05% β-DDM; 50 mM phosphate (pH >= 7) or 50 mM Na acetate (pH <= 6); control runs, runs with EDTA, at lower pH and with Cu2+; close-to-native conditions

B1: DR_2577, the main S-layer protein of Deinococcus radiodurans (natural protein, UniProt Q9RRB6 23-1167, looked up)
chain: APVSAPQVPALTDVPAGHWAKDAIDRLVSRGVILGYPDGTFRGTQNLTRYEAAIIIARLLDQMRDGETPAGMTAEDMTALQNAIQELAADLAALGVRVSDLEANAVSKDDFARLEARIEEVAAAGGEQGATEALQGQIDDLTARVDEYDALRADVDDNASSIAALNDLTVLLNQDILDLQDRVSAVEAAQADFVQRSDFDALGGRVTTVETRVETVNNSLTGRIAALERNAFSVKPSLTIGYSVSRTSRNFDVDRLFPLNADGTVANNAFTSGGIDTDTGAQRRDFGDFGNASDPVVAGAAGLYGFADGVSYTVYFTDGSTATFDGLNPADYKVPTGKVIDTTKGRNGFGFNNLARYKEGSTDIGISLGFDTSGQFSQVTSGTGGSLFSTAGRLQVNQIDLNFGLVTGLPSDAYVDTNGNGKKDDGEATGRGTYLGSGGTAAILRDPAGNVYRPVFFRFKNATTQFSVGNNPVIVTLGQQQKFYFSDYVFDNNYDGRGDGFTVTVDGSNVPVIGAWKPQIKGVYGSRSGLDGTAEAGYGVYYRGVRAQITPVGTLTAGIHYAQEGRDMFGAAQNTTSTPSDVTTYGADLHGKAFGVELHSEYATSRVRPNTANAAVQTSNAFYARVATRKDNLAFDLNTPAAKFGNDTFGVSLYDLNYRKIDAGYNNVAGISEYGYGSYSRTSAQNIAYNPDTGVTAPFANLDRQAYTDANNDGTSDRNADGTVVATNTKIGQMGFGVKAAANLGPVAIGGYYDTSTGANGDNANRMTEAGGSAKVAYSIFSLRGTYNTLDSNRPQIYRDAAGTQIIGDAKVRRYAVQADVTPGLGLFVGAYYRDVNVNGVRSTTDRGLLGRGYLASSFEPGVGNNAYRTGLRCADNNFGTGTRDIDGVGGVLNPAVNLDQSRTATCFTSYGVEAGHAGDNANALVKDLFFRVGYSRVYVPTTATATTGDFSGSVTYGDARYDRKVGVANVRLAGSFSTTNTQLDSRPAGTRGAVGLIVRTDPLENVPFRPQFNGQVGYYTADNRVAAGNYNANATKYGAGVVLNDFLLPQTKIGVRYDGYMAQNRQYTPFDGDGTQGYFSDANNNRRTNLNGVYVEGAYQDLIFSYGTYTLSQKDLNGVEYGSGINNGQPARGQTFKISYKVNF
notes: DR_2577 (SlpA), main S-layer protein of Deinococcus radiodurans strain R1; The introduction describes it as a homo-hexamer of ~760 kDa (trimer of dimers); the dimers are said (cited work) to be held by intermolecular disulfide bonds; also called SlpA
For B1, the “stoichiometry N” value was 6 and 2.
